Kd data for three substances are collected here from article PMC10922510.

By Kd is commonly meant the equilibrium constant for the complex coming apart.

What all share (test): BLI
The target of experiment [1] is biotinylated human FcγRIIa-131H extracellular domain with AviTag (human) (UniProt P12318).
Experiment [2] deals with biotinylated human FcγRIIa-131R extracellular domain with AviTag (human) (UniProt P12318).
Experiment [3] deals with biotinylated human FcγRIIb extracellular domain with AviTag (human) (UniProt P31994).
In experiment [4] the target is biotinylated human FcγRIIIa-176V extracellular domain with AviTag (human) (UniProt P08637).
Sequence of UniProt P08637 (P08637 17-208 F176V): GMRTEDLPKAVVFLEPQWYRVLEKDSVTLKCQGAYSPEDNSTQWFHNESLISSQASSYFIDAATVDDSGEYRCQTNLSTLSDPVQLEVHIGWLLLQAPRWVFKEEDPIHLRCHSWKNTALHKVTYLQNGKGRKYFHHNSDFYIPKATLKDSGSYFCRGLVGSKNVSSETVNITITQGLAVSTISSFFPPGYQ

Sequence of UniProt P31994 (P31994 43-217): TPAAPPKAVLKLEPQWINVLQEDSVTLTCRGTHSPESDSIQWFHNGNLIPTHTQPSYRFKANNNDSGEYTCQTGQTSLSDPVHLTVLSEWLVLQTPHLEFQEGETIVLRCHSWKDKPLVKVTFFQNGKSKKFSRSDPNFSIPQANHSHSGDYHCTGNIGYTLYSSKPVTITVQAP

Take “human IgG1 trastuzumab with Fc mutation G236A (antibody)”: the results for the Kd in experiment [1] and in experiment [2] were 120 nM and 210 nM, respectively.
In experiment [3], “human IgG1 trastuzumab with Fc mutation P238D (antibody)” had a Kd of 310 nM.
As to “human IgG1 trastuzumab, wild-type Fc (antibody)”, the Kd in experiment [1] is 290 nM; in experiment [3] it was 360 nM; in experiment [2], 610 nM; in experiment [4], 610 nM.
